Consider 39 molecules from patent US20240158455A1, “MULTIPLE SCLEROSIS ASSOCIATED AUTOANTIGENS, AND USE THEREOF IN THERAPY AND DIAGNOSIS” (NEOGAP Therapeutics AB, priority 2017, published 2024).

The labels stand for the following.
B1: FABP7 isoform 2. Full length: recombinant full-length human FABP7 isoform 2 (SEQ ID NO: 1) produced in E. coli; in b59 "FABP7" refers to PrEST data (protein, listed as Homo sapiens)
chain: MVEAFCATWKLTNSQNFDEYMKALGVGFATRQVGNVTKPTVIISQEGDKVVIRTLSTFKNTEISFQLGEEFDETTADDRNCKSVVSLDGDKLVHIQKWDGKETNFVREIKDGKMVMVSNDNSPFFLVFFSSPHTSHLLPSSSLLLPFFLLPSFFNNTSLARFFNYM
B2: FABP7 peptide #22 (Aa 107-121 of SEQ ID NO: 6) (peptide)
peptide: REIKDGKMVMTLTFG
notes: FABP7 isoform 1 peptide; also called Pool 4 FABP7
B3: FABP7 peptide #23 (Aa 112-126 of SEQ ID NO: 6) (peptide)
peptide: GKMVMTLTFGDVVAV
notes: as for B2

The first test has as its system T-cells in PBMCs from MS patients and healthy controls. Briefly: FluoroSpot with full-length recombinant antigens (52 patients, 24 controls), with ROC analysis. It counts as cell-based, human.
Conditions: not given
As for the experimental part:
FIGS. 8A-8D. IFNγ/IL-22/IL-17 Fluorospot assay comparing T-cell activation in multiple sclerosis (MS)-patients and healthy controls when stimulated with full-length recombinant antigens (FABP7, PROK2, RTN3, SNAP91). Fifty-two Multiple Sclerosis patients and 24 healthy controls were tested for T-cell activation towards recombinant full-length versions of the autoantigens in a FluoroSpot assay. FIG. 8A: FABP7 isoform 2 (SEQ ID NO:1). FIG. 8B: PROK2 (SEQ ID NO:2). FIG. 8C: RTN3 SEQ ID NO:3. FIG. 8D: SNAP91 SEQ ID NO: 4. P-values calculated using Mann-Whitney test. Staples denote mean and C195%.
FIGS. 9A-9E. ROC-curves for the full-length antigens, Sensitivity and specificity when used as a diagnostic marker. Individually, the four antigens perform similarly as diagnostic markers for disease, all reaching a sensitivity of ˜50% with a specificity of 95%. FIG. 9A: FABP7 isoform 2. FIG. 9B: PROK2. FIG. 9C: RTN3. FIG. 9D: SNAP91. FIG. 9E: Using a combination of all four antigens as a diagnostic test achieves higher sensitivity and specificity. Specifically, utilizing the ratio of IL-17 divided by the square root of IFNγ response towards the mean response to the four antigens achieves a sensitivity of 70% with a specificity of >95%.
The full-length proteins can also be used in a similar way, see FIG. 9A-D. Utilizing all four full-length antigens, using each individual's average response to the four, increases the sensitivity and specificity further (FIG. 9E). Combining different readouts, such as analyzing the ratio between IL-17 and IFNγ, can increase the sensitivity of the test further (FIG. 9E, Table 2).
Recombinant full-length versions of the antigens FABP7 (SEQ ID NO: 1), PROK2 (SEQ ID NO: 2), RTN3 (SEQ ID NO: 3), SNAP91 (SEQ ID NO: 4) were produced in E. coli in house according to standard recombinant protein production protocols and purified via his-tag purification. 52 patients and 24 controls were tested for reactivity towards the antigens in an IFNγ/IL17/IL22 FluoroSpot assay as previously described.
A second, larger, cohort was collected in order to test the full length antigens. In this cohort, 52 patients and 24 healthy controls were included. The inclusion/exclusion criteria (table 5) as well as the sampling and PBMCs isolation were the same.
The antigens (FABP7, PROK2, RTN3 and SNAP91) picked out from the screening of PrESTs described in Example 1 and 2 were selected for further testing on the full-length versions of the protein. The full-length antigens were produced by transforming plasmids encoding the antigen and a […] into Escherichia coli. After growth, the bacteria were lysed and the protein purified from the supernatant of the bacterial lysis via 6× histidine-tag purification on an immobilized metal affinity chromatography-column. The antigens were subsequently coupled to beads and endotoxin-washed as previously described.
The FluoroSpot assay was performed under sterile conditions in a cell culture hood. The cells were thawed in a water bath at 37° C. and washed with cRPMI (RPMI 1640 medium, Sigma Aldrich, containing 10% fetal calf serum, 1% 200 mM L-Glutamine, 1% 10,000 U/ml Penicillin-10 mg/ml Streptomycin). The cells were counted manually using a light-microscope (Nikon TMS-F, Nikon, Japan) and subsequently diluted in cRPMI to a concentration of 2.5×10^6 cells/ml. The FluoroSpot plate (Human IFNγ/IL-22/IL-17A FluoroSpot kit, pre-coated, Mabtech, Sweden) was washed with PBS and then blocked with cRPMI for 30 min at room temperature. The blocking cRPMI was then discarded and 100 μl fresh cRPMI was added to each well of the FluoroSpot plate. Antigen (3×10^6 beads) was added to each well in duplicates according to a specific layout. In accordance to the manufacturer's protocol, anti-CD3 was used as a positive control. Both uncoupled beads and media without stimuli was used as negative controls. PBMCs (250,000 cells) in 100 μl cRPMI were added to each well (125,000 cells for the anti-CD3). […]
Turning to B1, the “reactivity of MS patients PBMCs versus controls, IFNγ” value is recorded as “significantly higher reactivity”; the “reactivity of MS patients PBMCs versus controls, IL17 and IL22” value is on record as “significantly higher reactivity”.

For the next test, the target named is HLA DRB5 01:01. Briefly: competitive HLA binding assay (legend: - No binding).
Conditions: not given
On to LVHIQKWDGKETNFV (also called Pool 4 FABP7) [FABP7 peptide #19 (Aa 92-106 of SEQ ID NO: 1)], for which the binding result is “no binding”. On to QVGNVTKPTVIISQE (also called Pool 2 FABP7) [FABP7 peptide #7 (Aa 32-46 of SEQ ID NO: 1)], for which the binding result is listed as “no binding”.

In the case of KRSKRKKEVPFFGRR (also called Pool 2 PROK2) [PROK2 peptide #13 (Aa 88-102 of SEQ ID NO: 2)], the binding result is reported as “no binding”.

For KSVVSLDGDKLVHIQ (also called Pool 3 FABP7) [FABP7 peptide #17 (Aa 82-96 of SEQ ID NO: 1)], the binding result is “no binding”. As to LDGDKLVHIQKWDGK (also called Pool 3 FABP7) [FABP7 peptide #18 (Aa 87-101 of SEQ ID NO: 1)], the binding result is reported as “no binding”. On the same count and under the same terms, to MVSNDNSPFFLVFFS (also called Pool 5 FABP7) [FABP7 peptide #27 (Aa 116-130 of SEQ ID NO: 1)] belongs “no binding”; to AVITGACDKDSQCGG (also called Pool 1 PROK2) [PROK2 peptide #1 (Aa 28-42 of SEQ ID NO: 2)], “no binding”. The same measure, in the same setting: to CTPMGKLGDSCHPLT (also called Pool 1 PROK2) [PROK2 peptide #7 (Aa 58-72 of SEQ ID NO: 2)] belongs “no binding”; to SQCGGGMCCAVSIWV (also called Pool 1 PROK2) [PROK2 peptide #3 (Aa 38-52 of SEQ ID NO: 2)], “no binding”; to DDRNCKSVVSLDGDK (also called Pool 3 FABP7) [FABP7 peptide #16 (Aa 77-91 of SEQ ID NO: 1)], “no binding”.

With HLLPSSSLLLPFFLL (also called Pool 6 FABP7) [FABP7 peptide #31 (Aa 136-150 of SEQ ID NO: 1)], the binding result is reported as “no binding”. On to LGEEFDETTADDRNC (also called Pool 3 FABP7) [FABP7 peptide #14 (Aa 67-81 of SEQ ID NO: 1)], for which the binding result is listed as “no binding”.

For KWDGKETNFVREIKD (also called Pool 4 FABP7) [FABP7 peptide #20 (Aa 97-111 of SEQ ID NO: 1)], the binding result is “no binding”. Take ERRKRKRSKRKKEVP (also called Pool 2 PROK2) [PROK2 peptide #12 (Aa 83-97 of SEQ ID NO: 2)]: the binding result is reported as “no binding”.

Take EISFQLGEEFDETTA (also called Pool 3 FABP7) [FABP7 peptide #13 (Aa 62-76 of SEQ ID NO: 1)]: the binding result is listed as “no binding”. Consider GRRMHHTCPCLPGLA (also called Pool 3 PROK2) [PROK2 peptide #18 (Aa 100-114 of SEQ ID NO: 2)], for which the binding result is on record as “no binding”. As to VREIKDGKMVMVSND (also called Pool 5 FABP7) [FABP7 peptide #25 (Aa 106-120 of SEQ ID NO: 1)], the binding result was “no binding”. Still for that read-out and setting: the result for B2 reads “no binding”; that for TNSQNFDEYMKALGV (also called Pool 1 FABP7) [FABP7 peptide #3 (Aa 12-26 of SEQ ID NO: 1)], “no binding”; that for KALGVGFATRQVGNV (also called Pool 1 FABP7) [FABP7 peptide #5 (Aa 22-36 of SEQ ID NO: 1)], “no binding”. For the molecule HTCPCLPGLACLRTS (also called Pool 3 PROK2) [PROK2 peptide #19 (Aa 105-119 of SEQ ID NO: 2)], the binding result is “no binding”. On to SSLLLPFFLLPSFFN (also called Pool 6 FABP7) [FABP7 peptide #32 (Aa 141-155 of SEQ ID NO: 1)], for which the binding result is on record as “no binding”. Turning to TFKNTEISFQLGEEF (also called Pool 2 FABP7) [FABP7 peptide #12 (Aa 57-71 of SEQ ID NO: 1)], the binding result was “no binding”. Same read-out and setting: the result for ACDKDSQCGGGMCCA (also called Pool 1 PROK2) [PROK2 peptide #2 (Aa 33-47 of SEQ ID NO: 2)] reads “no binding”; that for GNGRQERRKRKRSKR (also called Pool 2 PROK2) [PROK2 peptide #11 (Aa 78-92 of SEQ ID NO: 2)], “no binding”.

Turning to IISQEGDKVVIRTLS (also called Pool 2 FABP7) [FABP7 peptide #9 (Aa 42-56 of SEQ ID NO: 1)], the binding result is on record as “no binding”. For IRTLSTFKNTEISFQ (also called Pool 2 FABP7) [FABP7 peptide #11 (Aa 52-66 of SEQ ID NO: 1)], the binding result is on record as “no binding”.

In the case of DETTADDRNCKSVVS (also called Pool 3 FABP7) [FABP7 peptide #15 (Aa 72-86 of SEQ ID NO: 1)], the binding result is recorded as “no binding”. Take B3: the binding result is recorded as “no binding”. Still for that read-out and setting: to KLGDSCHPLTRKNNF (also called Pool 2 PROK2) [PROK2 peptide #8 (Aa 63-77 of SEQ ID NO: 2)] belongs “no binding”; to TKPTVIISQEGDKVV (also called Pool 2 FABP7) [FABP7 peptide #8 (Aa 37-51 of SEQ ID NO: 1)], “no binding”.

Another test concerns the target HLA DRB5 01:01 (Homo sapiens, UniProt P01903+Q30154). As to the kind of experiment: Competitive binding assay of overlapping peptides to HLA. Conditions: competitive binding to HLA DRB5 01:01, compared with reference H1N1 influenza peptide.
Turning to “Aa 121-135-SEQ ID NO: 1 (NSPFFLVFFSSPHTS; listed as Homo sapiens) [FABP7 #28]”, the Binding affinity entry is given as “+++”. Consider “Aa 126-140-SEQ ID NO: 1 (LVFFSSPHTSHLLPS; listed as Homo sapiens) [FABP7 #29]”, for which the Binding affinity entry is reported as “+”. Turning to “Aa 131-145-SEQ ID NO: 1 (SPHTSHLLPSSSLLL; listed as Homo sapiens) [FABP7 #30]”, the Binding affinity entry is reported as “+”.

With “Aa 136-150-SEQ ID NO: 1 (HLLPSSSLLLPFFLL; listed as Homo sapiens) [FABP7 #31]”, the Binding affinity result is “−”. Same read-out and setting: the result for “Aa 141-155-SEQ ID NO: 1 (SSLLLPFFLLPSFFN; listed as Homo sapiens) [FABP7 #32]” reads “−”; that for “Aa 146-160-SEQ ID NO: 1 (PFFLLPSFFNNTSLA; listed as Homo sapiens) [FABP7 #33]”, “++”. Regarding “Aa 152-166-SEQ ID NO: 1 (SFFNNTSLARFFNYM; listed as Homo sapiens) [FABP7 #34]”, the Binding affinity result is “+”.
